Laboratory results taken from patent US20200386770A1 (YUROGEN BIOSYSTEMS, published 2020).

Legend:
[1] = target: T1, human PD-L2 (human, UniProt Q9BQ51 20-220, limits assumed); assay: direct ELISA, human PD-L2 coated
T1 construct: Coated on plates in the direct ELISA; construct not described; also called programmed death ligand-2
T1 sequence (looked up): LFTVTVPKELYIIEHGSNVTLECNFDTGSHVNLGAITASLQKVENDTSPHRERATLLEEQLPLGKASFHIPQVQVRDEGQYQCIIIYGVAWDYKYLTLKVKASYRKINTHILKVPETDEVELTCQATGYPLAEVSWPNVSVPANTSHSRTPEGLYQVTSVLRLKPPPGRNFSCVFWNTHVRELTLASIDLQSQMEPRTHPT
Experimental: The procedures of the direct ELISA are described in the method below. […] The negative control was conducted using the same procedures as the anti-human PD-L1 antibodies, except that a blank buffer is used instead of the anti-human PD-L1 antibodies. The blank buffer is the buffer for diluting the anti-human PD-L1 antibodies. […] Thereby, 2C5, 3B8, 8C6, 10H6, 11G7, and 12H2 can eliminate the cross-reactivity of human PD-L2.
(§1) 3. Direct ELISA with rabbit monoclonal antibodies against human PD-L1 or PD-L2. Human PD-L1 and PD-L2 were coated on high binding ELISA plates at 4° C. overnight in 1×PBS, pH7.4. Coated plates were washed with Wash Buffer (1×PBS supplemented with 0.5% (V/V) Tween-20), and blocked with Blocking Buffer (1×PBS supplemented with 5% (W/V) skim milk). After blocking, plates were incubated with rabbit anti-PD-L1 monoclonal antibodies for 1 hour at room temperature, followed by washing and incubation with goat anti-rabbit IgG antibody conjugated with HRP. After a final wash, plated were developed using colorimetric reaction catalyzed by HRP to see if a monoclonal antibody can or cannot bind to PD-L1 and PD-L2.

[2] = target: T2, human PD-L1 (human, UniProt Q9NZQ7 19-238, limits assumed); assay: sandwich ELISA (8C6 capture, 2C5 detection) compared with direct ELISA
T2 construct: also called programmed death ligand-1; CD274
Experimental: As compared to the direct ELISA with 8C6 shown in FIG. […] The sandwich ELISA enhances the sensitivity of human PD-L1 to 2C5, as compared to the direct ELISA.
as §1
5. Sandwich ELISA with rabbit monoclonal antibodies against human PD-L1. Capture antibodies were coated on high binding ELISA plates at 4° C. overnight in bicarbonate buffer. Coated plates were washed with Wash Buffer (1×PBS supplemented with 0.5% (V/V) Tween-20), and blocked with Blocking Buffer (1×PBS supplemented with 5% (W/V) skim milk). […]

[3] = target: T2, human PD-L1; assay: direct ELISA, 10 ng/ml human PD-L1
Experimental: as §1

T2 sequence (Q9NZQ7 19-238 limits assumed): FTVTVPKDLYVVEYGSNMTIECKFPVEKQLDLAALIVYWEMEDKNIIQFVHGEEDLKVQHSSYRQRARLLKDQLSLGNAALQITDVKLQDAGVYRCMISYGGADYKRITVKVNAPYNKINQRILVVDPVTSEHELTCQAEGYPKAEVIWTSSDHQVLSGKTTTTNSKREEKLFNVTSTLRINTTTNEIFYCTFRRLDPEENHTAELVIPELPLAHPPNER

B1: rabbit anti-human PD-L1 mAb 2C5 (antibody, V domains shown)
VH: QSVEESGGRLVTPGTPLTLTCTVSGFSLNNDNVGWVRQAPGKGLEWVGLIDILGSSYYASWAKGRFTISKTSNTVDLKITSPTIEDTATYFCAREGDGSFDPWGPGTLVTVSS
VL: AQVLTQTPSPVSAAVGGTVTINCQASQNVYNKKNLAWYQQKLGQPPKLLIYKASTLASGVPSRFSGSGSGTQFTLTISDLECDDAATYYCQGDYIGSRAFGGGTEVVVKG
notes: Recombinant rabbit IgG; Full heavy chain assembled from the Fab heavy chain entry followed by the Fc entry; Biotinylated when used as detection antibody in the sandwich ELISA
binding result [1]: no binding (tested: concentrations up to 1000 ng/ml) | fold sensitivity, sandwich ELISA against direct ELISA [2]: ≥ 2 fold

B2: rabbit anti-human PD-L1 mAb 11G7 (antibody, V domains shown)
VH: QSVEESGGRLVTPGTPLTLTCTVSGIDLSSYDMTWVRQAPGKGLEYIGYISYFDKTYYATWAKGRFTISKTSTTVDLKMTSLTTEDTATYFCVRDRPDGITANLWGQGTLVTVSS
VL: AQLPTQTASPVSAAVGGTVTINCQSSHNVYSDNRLSWYQQKPGQPPKLLIYWASILASGVPSRFKGSGSGTQFTLTITDLECDDAATYYCAGGYSGNIYTFGGGTEVVVKG
notes: Recombinant rabbit IgG; Full heavy chain assembled from the Fab heavy chain entry followed by the Fc entry
binding result [1]: no binding (tested: concentrations up to 1000 ng/ml) | OD450 at 10 ng/ml [3]: ~0.1 OD450

B3: rabbit anti-human PD-L1 mAb 3B8 (antibody, V domains shown)
VH: QSLEESGGDLVKPGASRTLTCTASGFSFSNNAYMCWVRQAPGKGLELIACIYSRYGNTHYASWAKGRFTISKTSSTTVTLQMTSLTAADTATYFCARGASGSSDYSFYFNLWGPGTLVTVSS
VL: AYDMTQTPASVEVAVGGTVTIKCQASQSISSWLAWYQQKPGQPPKLLIYDAYDLASGVPSRFKGSGSGTQFTLTISGVECTDAATYYCQQGYSSENIDNSFGGGTDVVVKG
notes: as for B1
binding result [1]: no binding (tested: concentrations up to 1000 ng/ml)

B4: rabbit anti-human PD-L1 mAb 8C6 (antibody, V domains shown)
VH: QSVEESGGRLVTPGTPLTLTCTASGFDISRHHMCWVRQAPGEGLEYIGFINPPGSAYYANWAKGRFTISRTSTTVALEMTSLTTEDTATYFCARWRFDDYGDLWGQGTLVTVSS
VL: AYDMTQTPASVEVAVGGTVTIKCQASESIASYLAWYQQKPGQPPKLLIYKASTLASGVSSRFRGSGSGTEFTLTISGVECADAATYYCQQGYSATNIDNAFGGGTEVVVKG
notes: as for B1
binding result [1]: no binding (tested: concentrations up to 1000 ng/ml)

B5: rabbit anti-human PD-L1 mAb 10H6 (antibody, V domains shown)
VH: QEQLVESGGGLVQPEGSLTLTCTASGFSFSSIYYLCWVRQAPGKGLEWIACIYGGNSDNTWYASWAKGRFTISKTSSTTVTLQMTSLTAADTATYFCARGYDIYGYAINLWGPGTLVTVSS
VL: DVVMTQTPASVEAAVGGTVTIKCQASQSIGGYLAWYQQKPGQPPKLLIYRASTLESGVASRFKGSGSGTEFTLTISDLECADAATYYCQCTYDSSNSRIYPNVFGGGTEVVVKG
notes: as for B2
binding result [1]: no binding (tested: concentrations up to 1000 ng/ml)

B6: rabbit anti-human PD-L1 mAb 12H2 (antibody, V domains shown)
VH: QEQLVESGGGLVQPEGSLTLTCTASGFSFSSSYYMCWVRQAPGKGLEWIACIWTSNGGRTYYANWAKGRFTISETSSTTVTLQMTSLTAADTATYFCARDDDTGSGYYNLWGPGTLVTVSS
VL: QIVMTQTASPVSAAVGGTVTINCQASESISSWLAWYQQKPGQPPKLLIYKASTLASGVPSRFKGSGSGTEFTLTISDLECADAATYYCQHGYYFGSVANTFGGGTEVVVKG
notes: as for B2
binding result [1]: no binding (tested: concentrations up to 1000 ng/ml)
